In patent US20150306011:

Target: histone H3 (acid extracted histones from untreated HeLa cells), P68431

B1: PCAF histone acetylase enzyme (protein)
chain: MLEEEVYSQNSPIWDQDFLSASSRTSQLGIQTVINPPPVAGTISYNSTSSSLEQPNAGSSSPACKASSGLEANPGEKRKMTDSHVLEEAKKPRVMGDIPMELINEVMSTITDPAAMLGPETNFLSAHSARDEAARLEERRGVIEFHVVGNSLNQKPNKKILMWLVGLQNVFSHQLPRMPKEYITRLVFDPKHKTLALIKDGRVIGGICFRMFPSQGFTEIVFCAVTSNEQVKGYGTHLMNHLKEYHIKHDILNFLTYADEYAIGYFKKQGFSKEIKIPKTKYVGYIKDYEGATLMGCELNPRIPYTE
- histone H3 acetylation in PCAF HAT reaction (immunoblot, diacetylated H3 Ac-Lys9+Ac-Lys14): 35-fold increase
